According to patent publication US20070093443:
Changes are numbered by the printed parent chain. In names and notes the source's numbering stands.

Assays:
Complement C2 (human) = target: T1, Complement C2 (human)
T1 chain: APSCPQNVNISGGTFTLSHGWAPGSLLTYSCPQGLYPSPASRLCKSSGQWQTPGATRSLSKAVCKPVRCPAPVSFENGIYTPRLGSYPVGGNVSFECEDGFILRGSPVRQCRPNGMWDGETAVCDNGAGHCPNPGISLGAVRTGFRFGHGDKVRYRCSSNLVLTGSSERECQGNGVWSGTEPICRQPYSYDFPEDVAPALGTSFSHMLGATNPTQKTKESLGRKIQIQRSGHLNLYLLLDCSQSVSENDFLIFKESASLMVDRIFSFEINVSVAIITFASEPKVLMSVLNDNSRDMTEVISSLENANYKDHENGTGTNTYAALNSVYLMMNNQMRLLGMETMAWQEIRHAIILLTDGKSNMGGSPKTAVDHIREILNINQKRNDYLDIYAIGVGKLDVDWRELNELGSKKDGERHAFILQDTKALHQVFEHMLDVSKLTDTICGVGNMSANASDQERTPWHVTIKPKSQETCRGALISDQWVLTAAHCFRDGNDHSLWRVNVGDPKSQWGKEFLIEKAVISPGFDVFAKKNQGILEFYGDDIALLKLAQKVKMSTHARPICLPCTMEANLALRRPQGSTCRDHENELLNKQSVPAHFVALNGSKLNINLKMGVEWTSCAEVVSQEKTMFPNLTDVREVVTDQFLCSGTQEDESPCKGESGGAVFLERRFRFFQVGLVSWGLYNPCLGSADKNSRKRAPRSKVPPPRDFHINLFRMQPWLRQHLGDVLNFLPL

[1] = target: T2, rat complement C2 (in plasma of treated rats), Q8CIP8
T2 chain: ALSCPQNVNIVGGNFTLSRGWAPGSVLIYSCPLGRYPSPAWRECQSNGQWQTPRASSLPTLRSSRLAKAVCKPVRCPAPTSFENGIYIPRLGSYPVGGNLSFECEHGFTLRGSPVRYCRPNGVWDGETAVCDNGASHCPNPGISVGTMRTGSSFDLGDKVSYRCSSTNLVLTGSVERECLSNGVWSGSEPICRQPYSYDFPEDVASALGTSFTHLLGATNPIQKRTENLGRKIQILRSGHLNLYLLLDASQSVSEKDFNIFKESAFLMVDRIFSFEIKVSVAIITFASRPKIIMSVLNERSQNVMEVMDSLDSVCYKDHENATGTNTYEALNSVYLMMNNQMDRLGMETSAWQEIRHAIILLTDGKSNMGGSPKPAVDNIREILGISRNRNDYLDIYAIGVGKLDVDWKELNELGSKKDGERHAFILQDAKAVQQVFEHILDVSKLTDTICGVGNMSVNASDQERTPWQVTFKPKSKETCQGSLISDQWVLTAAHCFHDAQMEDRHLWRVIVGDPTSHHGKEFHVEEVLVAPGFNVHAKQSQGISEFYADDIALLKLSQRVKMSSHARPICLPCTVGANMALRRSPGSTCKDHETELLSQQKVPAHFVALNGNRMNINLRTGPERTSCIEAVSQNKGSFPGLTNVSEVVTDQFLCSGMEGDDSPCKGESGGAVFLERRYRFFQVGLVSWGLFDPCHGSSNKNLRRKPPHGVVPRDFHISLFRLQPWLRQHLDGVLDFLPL

[2] = target: Complement component C6 (human)
Sequence of Complement component C6 (human) (chain, as listed by the source): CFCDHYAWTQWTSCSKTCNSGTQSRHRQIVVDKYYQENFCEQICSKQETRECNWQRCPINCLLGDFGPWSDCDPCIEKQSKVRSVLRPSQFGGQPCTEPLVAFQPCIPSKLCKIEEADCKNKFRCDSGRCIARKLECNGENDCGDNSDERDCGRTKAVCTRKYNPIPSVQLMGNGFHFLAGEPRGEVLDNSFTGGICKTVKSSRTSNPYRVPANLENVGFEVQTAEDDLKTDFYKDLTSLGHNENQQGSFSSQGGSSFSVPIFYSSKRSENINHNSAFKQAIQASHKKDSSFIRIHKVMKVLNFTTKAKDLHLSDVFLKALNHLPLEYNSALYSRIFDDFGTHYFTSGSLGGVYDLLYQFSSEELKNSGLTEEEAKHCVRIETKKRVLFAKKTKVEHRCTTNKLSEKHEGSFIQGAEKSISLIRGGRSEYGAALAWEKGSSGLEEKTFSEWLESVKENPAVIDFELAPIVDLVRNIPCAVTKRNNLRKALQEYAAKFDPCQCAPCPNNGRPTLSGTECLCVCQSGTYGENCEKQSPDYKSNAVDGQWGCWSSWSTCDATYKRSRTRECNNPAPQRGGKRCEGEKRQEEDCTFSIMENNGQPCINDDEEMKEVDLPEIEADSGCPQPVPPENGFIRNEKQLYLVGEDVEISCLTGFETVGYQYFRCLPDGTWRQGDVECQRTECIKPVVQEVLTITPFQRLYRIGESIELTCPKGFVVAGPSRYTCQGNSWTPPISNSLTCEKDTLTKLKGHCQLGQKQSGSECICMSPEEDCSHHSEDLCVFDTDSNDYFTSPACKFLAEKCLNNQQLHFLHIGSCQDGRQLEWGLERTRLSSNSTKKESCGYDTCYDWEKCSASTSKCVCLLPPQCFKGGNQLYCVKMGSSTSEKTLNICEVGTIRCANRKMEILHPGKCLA

B1: modified MT-SP1 CB252 (Y146E/K224N) protease domain (protein)
chain: VVGGTDADEGEWPWQVSLHALGQGHICGASLISPNWLVSAAHCYIDDRGFRYSDPTQWTAFLGLHDQSQRSAPGVQERRLKRIISHPFFNDFTFDYDIALLELEKPAEYSSMVRPICLPDASHVFPAGKAIWVTGWGHTQEGGTGALILQKGEIRVINQTTCENLLPQQITPRMMCVGFLSGGVDSCQGDSGGPLSSVEADGRIFQAGVVSWGDGCAQRNNPGVYTRLPLFRDWIKENTGV
- cleavage in 90% human plasma by Western blot (Complement C2 (human)): cleaved C2 in human plasma in a dose-dependent manner
- cleavage of purified C2 by 100 nM protease, SDS-PAGE and Coomassie (Complement C2 (human)): C2 was almost completely degraded to yield cleavage products of about 70 kD and 23 kD corresponding to C2a and C2b, respectively
- fraction C5b-9 generated, Total Complement System Screen (classical and MBL pathways), 1 uM protease in human plasma (Complement C2 (human)): the fraction C5b-9 generated upon complement activation induced by the classical and MBL pathways was almost completely inhibited
- hemolysis (OD415) by protease-preincubated purified complement protein added back to the corresponding depleted sera (Complement C2 (human)): resulted in an inhibition of hemolysis as assessed by a reduced OD415 absorbance to levels comparable to the depleted sera control
- C2 Western blot of plasma from rats dosed IV with the protease [1]: CB252 showed a greater cleavage of C2 as there was little detectable C2 present in the plasma samples as assessed by Western Blot even after only 5 minutes following injection, with no detectable C2 present at 60 or 120 minutes after injection
- hemolysis (OD415) by protease-preincubated purified complement protein added back to the corresponding depleted sera [2]: showed no decreased hemolysis as compared to normal sera or the no protease control

B2: modified MT-SP1 CB377 (Y146E/Q175D/K224N) protease domain (protein)
chain: B1 chain with Q169D
- cleavage in 90% human plasma by Western blot (Complement C2 (human)): cleaved C2 in human plasma in a dose-dependent manner
- cleavage of purified C2 by 100 nM protease, SDS-PAGE and Coomassie (Complement C2 (human)): C2 was almost completely degraded to yield cleavage products of about 70 kD and 23 kD corresponding to C2a and C2b, respectively
- fraction C5b-9 generated, Total Complement System Screen (classical and MBL pathways), 1 uM protease in human plasma (Complement C2 (human)): the fraction C5b-9 generated upon complement activation induced by the classical and MBL pathways was almost completely inhibited
- hemolysis (OD415) by protease-preincubated purified complement protein added back to the corresponding depleted sera (Complement C2 (human)): resulted in an inhibition of hemolysis as assessed by a reduced OD415 absorbance to levels comparable to the depleted sera control
- C2 Western blot of plasma from rats dosed IV with the protease [1]: CB377 also showed diminished C2 levels as compared to vehicle control at early time points, however, by 60 minutes and 120 minutes the levels of C2 were comparable to those from vehicle control samples
- hemolysis (OD415) by protease-preincubated purified complement protein added back to the corresponding depleted sera [2]: showed no decreased hemolysis as compared to normal sera or the no protease control
